Some targets named below: HLA-B*07:02; HLA-A*02:01; HLA-B*15:01; HLA-B*44:02; HLA-B*44:03; HLA-A*26:01; HLA-B*18:01; HLA-B*51:01; HLA-A*01:01.
What all share (test): IEDB peptide-MHC binding, purified MHC/competitive/radioactivity; filed as Kd, often an IC50 or EC50 that approximates it; ≥ and ≤ were set here for values at or beyond the usual limits of such assays
What all share (conditions): source organism: Severe acute respiratory syndrome coronavirus 2

As usually defined, the Kd is the concentration at which binding is half-saturated.

Turning to APHGHVMVEL, the Kd with HLA-B*07:02 was 0.0061 µM.
As to APRITFGGP, the equilibrium dissociation constant (Kd) came to 0.893 µM with HLA-A*02:01 and 0.059 µM with HLA-B*07:02.
On to DEFVVVTV, for which the Kd worked out at 2.05 µM with HLA-B*15:01; 2.79 µM with HLA-B*44:02; 1.28 µM in the test with HLA-B*44:03; 9.55 µM with HLA-A*26:01; 13 µM with HLA-A*02:01; 0.0005 µM in the test with HLA-B*18:01. The equilibrium dissociation constant (Kd) with HLA-B*07:02 was not below 52.8 µM; with HLA-B*51:01 it was 12.8 µM.
As for EEFEPSTQYEY, the Kd with HLA-B*15:01 was 0.078 µM; in the test with HLA-B*44:02, 0.05 µM; with HLA-B*44:03, 0.00041 µM; with HLA-A*26:01, 18.8 µM; with HLA-B*18:01, 0.0011 µM.
For the sequence EIKESVQTF, the Kd in the test with HLA-B*15:01 is 4.93 µM; with HLA-B*44:02 it was not below 37.2 µM; with HLA-A*26:01, 0.0078 µM.
As to ELPDEFVVV, the dissociation constant Kd stood at 6.86 µM in the test with HLA-A*26:01 and 0.46 µM with HLA-A*02:01.
As to ELPDEFVVVTV, the equilibrium dissociation constant (Kd) was not below 35.1 µM with HLA-B*15:01, 0.072 µM in the test with HLA-A*26:01, 0.0016 µM in the test with HLA-A*02:01 and 1.13 µM with HLA-B*18:01.
Consider FASEAARVV, for which the dissociation constant (Kd) in the test with HLA-B*15:01 was 2.55 µM; with HLA-A*26:01, 0.734 µM; with HLA-A*02:01 it was 0.495 µM; with HLA-B*18:01, not below 49.5 µM; with HLA-B*07:02, 8.55 µM; in the test with HLA-B*51:01 it was 0.207 µM.
With FGDDTVIEV, the results for the Kd with HLA-B*15:01 and with HLA-B*51:01 were 2.38 µM and not below 45.7 µM, respectively.
For HADQLTPTW, the dissociation constant (Kd) is 13.4 µM with HLA-B*15:01, 5.26 µM with HLA-B*44:02, 1.8 µM in the test with HLA-B*44:03 and 3.35 µM with HLA-B*18:01.
In the case of KNIDGYFKIY, the results for the Kd in the test with HLA-B*15:01 and in the test with HLA-A*02:01 were 1.45 µM and 11.8 µM, respectively.
Take KRVDWTIEY: the results for the Kd with HLA-B*15:01 and with HLA-B*51:01 were 0.356 µM and not below 22.7 µM, respectively.
Take LEDKAFQL: the Kd with HLA-B*15:01 was 14.7 µM; in the test with HLA-B*44:02, not below 35.4 µM; in the test with HLA-B*44:03 it was 0.208 µM; with HLA-A*02:01, 3.89 µM; with HLA-B*18:01 it was 0.035 µM.
NATNVVIKV: the values for the dissociation constant (Kd) in the test with HLA-B*44:03, in the test with HLA-A*26:01 and with HLA-B*51:01 were 8.11 µM, not below 43.4 µM and 0.536 µM, respectively.
Take SLEDKAFQL: the results for the Kd with HLA-B*15:01 and with HLA-A*02:01 were 1.58 µM and 0.02 µM, respectively.
In the case of STSAFVETV, the Kd was 10.4 µM with HLA-B*15:01; 12.1 µM in the test with HLA-A*26:01; 0.026 µM in the test with HLA-A*02:01; 12.7 µM with HLA-A*01:01; 8.86 µM in the test with HLA-B*07:02.
In the case of VATSRTLSY, the Kd is 0.267 µM in the test with HLA-B*15:01, 11.8 µM with HLA-A*26:01 and 18.8 µM with HLA-A*01:01.
In the case of VGYLQPRTF, the Kd with HLA-B*15:01 was determined as 0.777 µM; with HLA-B*18:01, 0.707 µM.

The values above are taken from the Immune Epitope Database (IEDB).
